# Experimental data: patent publication US20090142855, “Polynucleotides and Polypeptides of the IL-12 Family of Cytokines” (published 2009)
# B1: ARC1623 (mixed)
# RNA: ACAGGCAAGUAAUUGGGGAGUGCGGGCGGGGUGU
# modifications: 2'-OMe at all C and all U and at G16, G17, G24, G25, G30, G31; all other nucleotides 2'-deoxy (all A deoxy); PS after positions 17, 18, 19, 21; 3' inverted dT
# B2: ARC1626 (mixed)
# RNA: B1 RNA
# modifications: 2'-OMe at all C and all U and at G16, G17, G24, G25, G30, G31; all other nucleotides 2'-deoxy (all A deoxy); PS after positions 2, 3, 4, 6, 7, 8, 10, 11, 14, 17, 18, 19, 21, 25, 27, 28, 32; 3' inverted dT
# Assays:
# [1] = molecular target: T1, IL-23 (p19/p40 heterodimer) (Homo sapiens, UniProt P29460;Q9NPF7 P29460:23-328,Q9NPF7:20-189); experiment: FP; details: label: 5'-32P
# [2] = molecular target: T1, IL-23 (p19/p40 heterodimer); experiment: filter; dot blot nitrocellulose; Dulbecco's PBS with Ca2+ and Mg2+, 0.1 mg/mL BSA, room temp 30 min; details: label: 5'-32P
# Method: Aptamer binding affinity determination. Trace 5′-³²P-labeled aptamers were combined with protein (IL-23 or IL-12) at various concentrations and incubated at room temperature for 30 minutes in Dulbecco's PBS (PBS plus Ca²⁺, Mg²⁺) plus 0.1 mg/mL BSA. Each titration curve was tested in duplicate. The reactions were then added to a dot blot apparatus (Minifold-1 Dot Blot, Acrylic, Schleicher and Schuell, Keene, N.H.), assembled (from top to bottom) with Protran nitrocellulose (Schleicher and Schuell, Keene, N.H.), Hybond-P nylon (Amersham Biosciences, Piscataway, N.J.) and GB002 gel blot paper (Schleicher and Schuell, Keene, NH). Aptamers bound to protein are retained on the nitrocellulose filter, whereas the non-protein bound RNA is captured on the nylon filter. The extent of aptamer capture on each filter was quantitated using a Phosphoimager (Molecular Dynamics). Equilibrium dissociation constants (KD) were calculated using the equation: […]
# FIGS. 3 and 4 show the comparison of the aptamer binding curves (in duplicate) to cynomolgus IL-23, cynomolgus IL-12, and human IL-23.
# T1 sequence (P29460 23-328, chain 1 of 2): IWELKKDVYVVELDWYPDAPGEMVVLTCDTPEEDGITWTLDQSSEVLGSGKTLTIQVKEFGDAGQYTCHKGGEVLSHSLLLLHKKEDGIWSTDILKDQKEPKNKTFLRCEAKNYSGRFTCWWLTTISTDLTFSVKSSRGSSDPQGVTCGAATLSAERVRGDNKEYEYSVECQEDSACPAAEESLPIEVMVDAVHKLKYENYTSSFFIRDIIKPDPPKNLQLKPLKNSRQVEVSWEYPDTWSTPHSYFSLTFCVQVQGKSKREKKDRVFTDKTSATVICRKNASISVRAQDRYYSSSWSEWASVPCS
# T1 sequence (Q9NPF7 20-189, chain 2 of 2): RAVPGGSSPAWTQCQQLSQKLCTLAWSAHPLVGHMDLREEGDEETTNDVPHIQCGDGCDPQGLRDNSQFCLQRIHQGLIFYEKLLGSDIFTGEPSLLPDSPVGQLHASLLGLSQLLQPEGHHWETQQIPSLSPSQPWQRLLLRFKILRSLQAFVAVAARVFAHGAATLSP
Binder,Kd [1],Kd [2]
B1,0.25 nM,–
B2,–,0.15 nM
